Molecular target: RGA5 HMA domain (rice (Oryza sativa)) (UniProt F7J0N2)
Test: SPR; Biacore […]) or 50 to 0 µM ([…]; HBS-EP+ buffer; 1:1 binding model, kinetic fit

Sequence of UniProt F7J0N2 (F7J0N2 997-1066): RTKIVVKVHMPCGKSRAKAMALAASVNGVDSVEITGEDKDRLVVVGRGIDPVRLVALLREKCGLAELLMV

Substance: AVR-Pia (purified) (from UniProt B9WZW9 1-85) (natural protein)
- Kd: 26.8 µM
